Source: article PMC6448818, “A novel evolutionary conserved mechanism of RNA stability regulates synexpression of primordial germ cell-specific genes prior to the sex-determination stage in medaka”

Assays:
[1] = target: T1, Ol-bsf (Ol-lrpprc, Bicoid Stability Factor) (Oryzias latipes, UniProt H2LIH1 1-1438); assay: EMSA; self-competition 1/1 to 1/4 gave progressive loss of shift; EMSA: 10 mM Tris-HCl pH 7.9, 100 mM KCl, 10% glycerol, 5 mM MgCl2, 1 ug torula rRNA, 0.075% Triton X-100, 1 mM DTT, 1 ug BSA, 0.5 ng probe, 2 or 4 uL IVT mix in 20 uL, on ice 10 min; heparin (1/10 volume of 50 mg/mL) before loading; 5% native gel, 0.5x TBE; settings: protein: ivt; tags: FLAG; label: 5'-32P when probe
T1 sequence: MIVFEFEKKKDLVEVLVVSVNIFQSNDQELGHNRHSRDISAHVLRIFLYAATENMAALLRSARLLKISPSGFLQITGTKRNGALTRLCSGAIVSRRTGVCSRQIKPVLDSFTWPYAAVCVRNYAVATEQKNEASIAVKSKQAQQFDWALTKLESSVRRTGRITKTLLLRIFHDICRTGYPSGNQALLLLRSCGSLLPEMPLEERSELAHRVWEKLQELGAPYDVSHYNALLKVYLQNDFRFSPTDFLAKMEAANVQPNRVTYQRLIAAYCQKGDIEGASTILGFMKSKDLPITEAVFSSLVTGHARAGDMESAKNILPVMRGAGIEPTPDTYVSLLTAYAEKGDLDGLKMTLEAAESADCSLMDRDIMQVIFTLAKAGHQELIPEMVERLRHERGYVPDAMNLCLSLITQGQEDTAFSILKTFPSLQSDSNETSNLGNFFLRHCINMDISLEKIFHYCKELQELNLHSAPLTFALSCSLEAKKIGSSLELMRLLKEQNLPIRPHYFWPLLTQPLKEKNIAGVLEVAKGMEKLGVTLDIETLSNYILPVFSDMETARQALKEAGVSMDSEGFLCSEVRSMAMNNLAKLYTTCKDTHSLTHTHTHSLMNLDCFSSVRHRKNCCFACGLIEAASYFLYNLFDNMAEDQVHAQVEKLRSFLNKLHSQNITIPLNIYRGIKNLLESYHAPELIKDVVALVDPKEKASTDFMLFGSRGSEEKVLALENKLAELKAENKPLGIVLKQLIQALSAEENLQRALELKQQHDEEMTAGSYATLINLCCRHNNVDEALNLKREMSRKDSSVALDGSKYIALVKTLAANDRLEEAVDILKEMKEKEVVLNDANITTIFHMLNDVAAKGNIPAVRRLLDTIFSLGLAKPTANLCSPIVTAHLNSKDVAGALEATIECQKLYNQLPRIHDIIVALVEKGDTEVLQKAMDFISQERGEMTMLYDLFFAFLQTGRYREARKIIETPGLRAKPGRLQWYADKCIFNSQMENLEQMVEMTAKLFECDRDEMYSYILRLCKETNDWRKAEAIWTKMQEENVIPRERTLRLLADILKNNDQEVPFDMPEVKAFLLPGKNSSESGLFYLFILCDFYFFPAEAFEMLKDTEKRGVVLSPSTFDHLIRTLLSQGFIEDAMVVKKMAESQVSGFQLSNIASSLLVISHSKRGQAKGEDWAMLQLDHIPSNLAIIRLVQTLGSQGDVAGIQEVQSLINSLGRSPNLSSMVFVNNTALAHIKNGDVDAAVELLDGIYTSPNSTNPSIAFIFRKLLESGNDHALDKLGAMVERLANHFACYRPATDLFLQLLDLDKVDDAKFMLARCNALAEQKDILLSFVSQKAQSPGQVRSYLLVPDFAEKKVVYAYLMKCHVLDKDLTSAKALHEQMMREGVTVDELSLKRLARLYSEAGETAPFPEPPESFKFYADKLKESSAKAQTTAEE

[2] = target: T1, Ol-bsf (Ol-lrpprc, Bicoid Stability …); assay: competition; vs labelled D3U-box, probe/competitor 1/5; EMSA: 10 mM Tris-HCl pH 7.9, 100 mM KCl, 10% glycerol, 5 mM MgCl2, 1 ug torula rRNA, 0.075% Triton X-100, 1 mM DTT, 1 ug BSA, 0.5 ng probe, 2 or 4 uL IVT mix in 20 uL, on ice 10 min; heparin (1/10 volume of 50 mg/mL) before loading; 5% native gel, 0.5x TBE; settings: protein: ivt; tags: FLAG

UGGUUCACGUCUGCUGCAGGUCUCUGACUCU (ssRNA) [native medaka D3U-box]: binds [1].

UGGUUCACGUUCUUCAAGACGCUCUGACUCU (ssRNA) [D3U-scrambled box (S-D3U-box)]: no binding [2].
